Target: specific antigen (aa 245-258 of the GCN4 leucine zipper) fused to LexA (yeast)
Experiment: yeast two hybrid, LacZ reporter, bait LexA-GCN4 leucine zipper; Empty Vector is printed as 0.18

## Gal4 AD-AL5 scFv fusion (ampicillin-binding control scFv AL5) (from UniProt P04386 768-881)
  Rel. β-gal. activity %: 0.19%

Source: patent publication US20010024831A1
